From patent US20070298499, “Methods and compositions for regulating gene expression in plant cells” (published 2007)

How the values were obtained:
[1] = molecular target: T1, RF2b (expressed in BY-2 protoplasts) (UniProt Q6S4P4); assay: cell_activity; conditions: GUS reporter in BY-2 protoplasts
T1 sequence: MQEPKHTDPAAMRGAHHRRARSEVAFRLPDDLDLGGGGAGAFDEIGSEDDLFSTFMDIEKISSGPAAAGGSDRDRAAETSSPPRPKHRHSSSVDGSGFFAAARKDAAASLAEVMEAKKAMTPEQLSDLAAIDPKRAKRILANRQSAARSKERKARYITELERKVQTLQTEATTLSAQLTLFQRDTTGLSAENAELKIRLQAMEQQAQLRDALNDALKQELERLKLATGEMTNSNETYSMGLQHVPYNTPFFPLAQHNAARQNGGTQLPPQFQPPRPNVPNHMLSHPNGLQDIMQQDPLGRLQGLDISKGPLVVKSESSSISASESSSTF

[2] = molecular target: T2, RF2b (UniProt Q6S4P4 SEQ:1-329); assay: SPR; value only in figure; lower affinity than RF2a; conditions: chain copies: 2 (inferred, bZIP dimer), label: biotin (SPR)
T2 chain: T1 sequence
Method: (§1) To compare the binding affinities of RF2a and RF2b with the Box II element and its mutants, real time Surface Plasmon Resonance (“SPR”) measurements were conducted using a BIAcore 2000 instrument. The binding affinities of RF2a and RF2b to these DNA targets were measured on chips on which biotin labeled-Box II, -Box IIm1 and -Box IIm2 elements were immobilized.
(§2) The association and de-association constants were determined using BIAevaluation 3.1 software—using 1:1 binding with a mass transfer model. In general, RF2a has relatively higher binding affinities to the Box II, Box IIm1 and Box IIm2 elements when compared to RF2b. Furthermore, the DNA binding behavior of RF2a and RF2b are quite different from each other. RF2a appears to bind rapidly to the DNA target and slowly dissociates from the target, while RF2b binds slowly to the DNA target and releases from the target relatively quickly. The differences in the affinity of RF2a to the Box II element and its mutants, however, are not as dramatic as the differences of RF2b, while the relative order of affinities to the different target elements is the same for both proteins (FIG. 8).

[3] = molecular target: T3, RF2a-ΔQ (glutamine-rich domain deleted) (UniProt Q69IL4 SEQ:1-283); assay: EMSA; 100 ng protein, 5% acrylamide gel; conditions: tags: N-terminal His6 (pET28a); chain copies: 2 (inferred, bZIP dimer); label: biotin (SPR); 32P (EMSA)
T3 chain: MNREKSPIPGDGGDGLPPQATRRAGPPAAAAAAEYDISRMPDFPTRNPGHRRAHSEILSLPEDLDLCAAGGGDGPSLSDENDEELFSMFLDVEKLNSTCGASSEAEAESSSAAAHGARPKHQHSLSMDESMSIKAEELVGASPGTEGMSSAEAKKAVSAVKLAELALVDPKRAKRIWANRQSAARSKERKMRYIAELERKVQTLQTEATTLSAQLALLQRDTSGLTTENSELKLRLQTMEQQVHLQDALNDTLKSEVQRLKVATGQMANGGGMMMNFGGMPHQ
Method: (§3) The purified mutant proteins were then analyzed by SDS-PAGE to confirm that each protein was its expected size (FIG. 16(B)). To confirm that each of the mutant proteins bind to the DNA target, i.e., the Box II element and/or its operational derivatives, gel mobility shift assays were carried out with the purified recombinant proteins (FIG. 16(C)). The electrophoretic mobility shift assays were carried out essentially as described in Yin and Beachy (1995). 100 ng of proteins purified from the transformed E. coli were incubated with ³²P-labeled Box IIm1 DNA probe followed by electrophoresis in a 5% acrylamide gel (Yin et al., 1997) (FIG. 16(C)).

[4] = molecular target: T4, RF2a-ΔPΔA (proline-rich and acidic domains deleted) (UniProt Q69IL4 SEQ:1-261); assay: EMSA; 100 ng protein, 5% acrylamide gel; conditions: tags: N-terminal His6 (pET28a); chain copies: 2 (inferred, bZIP dimer); label: biotin (SPR); 32P (EMSA)
T4 chain: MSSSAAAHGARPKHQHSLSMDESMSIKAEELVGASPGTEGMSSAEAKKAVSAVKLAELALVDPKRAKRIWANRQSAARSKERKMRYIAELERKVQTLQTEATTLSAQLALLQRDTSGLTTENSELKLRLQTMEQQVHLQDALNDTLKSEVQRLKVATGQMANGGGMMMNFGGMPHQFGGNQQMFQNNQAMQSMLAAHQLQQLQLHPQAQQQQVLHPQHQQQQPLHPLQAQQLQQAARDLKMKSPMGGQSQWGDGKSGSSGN
Method: as §3

[5] = molecular target: T5, RF2a-ΔP (proline-rich domain deleted) (UniProt Q69IL4 SEQ:1-320); assay: EMSA; 100 ng protein, 5% acrylamide gel; conditions: tags: N-terminal His6 (pET28a); chain copies: 2 (inferred, bZIP dimer); label: biotin (SPR); 32P (EMSA)
T5 chain: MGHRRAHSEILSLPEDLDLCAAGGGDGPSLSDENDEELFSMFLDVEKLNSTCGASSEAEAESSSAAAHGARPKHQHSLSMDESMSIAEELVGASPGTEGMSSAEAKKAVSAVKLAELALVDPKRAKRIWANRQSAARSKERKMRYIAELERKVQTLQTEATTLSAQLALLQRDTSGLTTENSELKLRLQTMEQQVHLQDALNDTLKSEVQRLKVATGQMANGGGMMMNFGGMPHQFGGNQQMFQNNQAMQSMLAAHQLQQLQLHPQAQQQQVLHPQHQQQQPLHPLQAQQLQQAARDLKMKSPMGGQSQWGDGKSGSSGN
Method: as §3

[6] = molecular target: T6, RF2a-ΔPΔQ (proline- and glutamine-rich domains deleted) (UniProt Q69IL4 SEQ:1-236); assay: EMSA; 100 ng protein, 5% acrylamide gel; conditions: tags: N-terminal His6 (pET28a); chain copies: 2 (inferred, bZIP dimer); label: biotin (SPR); 32P (EMSA)
T6 chain: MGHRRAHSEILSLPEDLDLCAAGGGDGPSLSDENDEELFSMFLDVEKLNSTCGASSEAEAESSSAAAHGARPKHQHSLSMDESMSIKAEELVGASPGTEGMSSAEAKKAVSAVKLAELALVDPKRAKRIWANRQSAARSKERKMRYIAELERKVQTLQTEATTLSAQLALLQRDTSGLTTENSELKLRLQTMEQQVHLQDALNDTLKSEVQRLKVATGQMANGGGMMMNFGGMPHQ
Method: as §3

[7] = molecular target: T2, RF2b; assay: SPR; value only in figure; lower affinity than RF2a; slow on, relatively fast off; conditions: chain copies: 2 (inferred, bZIP dimer); label: biotin (SPR)
Method: as §1, §2

Work on “ACGAATCAATAAAGAAGGACCAGAAGATATAAAGCTGGAACATCTTCACATGCTACCACATGGCTAGCATCTTTACTTTAGCATCTCTATTATTGTAAGAGTGTATAATGAGGAGTGTGCCCCTTCACTCCAGTATATAAGGAGCACCAGAGTAGTGTAATAGATCATCGATCAAGCAAGCGAGAGCTCAAACTTCTAAGAGAGCAAGA (double strand) [E fragment with Box IIm2]” yielded an activity (fold activation) [1] of 5.8.

Work on “ACGAATCAATAAAGAAGGACCAGAAGATATAAAGCTGGAACATCTTCACATGCTACCACATGGCTAGCATCTTTACTTTAGCATCTCTATTATTGTAAGAGTGTATAATGACCAGTGTGGCGCTGGACTCCAGTATATAAGGAGCACCAGAGTAGTGTAATAGATCATCGATCAAGCAAGCGAGAGCTCAAACTTCTAAGAGAGCAAGA (double strand) [E fragment with Box IIm1]” yielded an activity (fold activation) [1] of 7.

B1: Box IIm1 (dsDNA)
DNA 1: CCAGTGTGGCGCTGG
DNA 2: CCAGCGCCACACTGG
B1: binds ([2]; 32P (EMSA)); binds [3]; binds [4]. B1: binds [5]; binds [6].

B2: Box IIm2 (dsDNA)
DNA 1: GGAGTGTGCCCCTTC
DNA 2: GAAGGGGCACACTCC
B2: binds [2].

B3: Box II (dsDNA)
DNA 1: CCAGTGTGCCCCTGG
DNA 2: CCAGGGGCACACTGG
B3: binds [7].
